The assay addresses Sym-1789. As to the kind of experiment: ELISA, biotinylated peptide on avidin plate, mAb titrated.

B1: CB030.1 (antibody, V domains shown)
VH: QVQLVQSGAEMKRPGSSVKVSCKASGGTFSTFAINWVRQAPGQGFEWMGGVIPGFDSANYAQKFQGRLTMSADESTSTVYMELSSLRSDDTAVYYCAGNSGYCSGDSCAPNWGPGTLVTVSS
VL: DIVMTQSPLSLPVTPGEPASISCRSSQSLVHSNGYSYLDWYLQKPGQSPQLLIYLGSNRPSGVPDRFSGSGSGTDFTLKISRVEAEDVGVYFCMQNLQTPTFGGGTKVEIK
Consider B1, for which the half-inhibitory concentration (IC50) (usually the midpoint of a concentration-inhibition curve) is ~0.02 µg/mL.

B2: CB017.5L (antibody, V domains shown)
VH: QVQLVESGGGVVQPGRSLRLSCSASGFTFSVYAMHWVRQAPGQGLEWVAIIWYDGSNKYYADSVKGRFTISRDNSKETLYLQMNSLRVEDTAVYYCARDPIVGHTRDGLDVWGQGTTVTVSS
VL: SYELTQPPSVSVSPGQTARVTCSGDAMAEQYTYWYQQKPGQAPVLIIFKDTERPSGIPERFSGSSSGTTVTLTISGVQTEDEADYYCQSTDSSGTSWVFGGGTKLTVL
Take B2: the IC50 is ~0.02 µg/mL.
